T1: human CTGF (antigen of the Biacore assays) (human, UniProt P29279 27-349, limits assumed)
T1 construct: also called human CTGF protein
T1 sequence: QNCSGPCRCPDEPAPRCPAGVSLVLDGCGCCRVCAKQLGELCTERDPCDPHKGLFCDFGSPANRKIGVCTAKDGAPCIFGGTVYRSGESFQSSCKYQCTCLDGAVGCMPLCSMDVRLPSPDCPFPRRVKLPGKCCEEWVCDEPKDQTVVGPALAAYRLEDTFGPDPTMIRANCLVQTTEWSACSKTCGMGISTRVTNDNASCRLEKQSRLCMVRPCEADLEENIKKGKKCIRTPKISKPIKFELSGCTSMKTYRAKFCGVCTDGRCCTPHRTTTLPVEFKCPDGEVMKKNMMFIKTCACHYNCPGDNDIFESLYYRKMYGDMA

B1: Hu147-22wk (antibody, human IgG1, kappa, V domains shown)
VH: EVQLVESGGGLVQPGGSLRLSCAASGFTFNTYAMNWVRQAPGKGLEWVARIRTKSNNYATYYADSVKDRFTISRDDSKNSLYLQMNSLKTEDTAVYYCVETGFAYWDQGTLVTVSS
VL: EIVLTQSPATLSLSPGERATLSCSASSSVSYMHWFQQKPGQSPKLLIYSTSNLASGIPARFSGSGSGTDYTLTISSLEPEDFAVYYCQQRSSYPLTFGQGTKLEIKR
notes: humanized from mab147, Hu147-VH2/VL2; IgG1/kappa
B2: Hu147-24wk (antibody, human IgG1, kappa, V domains shown)
VH: EVQLVESGGGLVQPGGSLRLSCAASGFTFNTYAMNWVRQAPGKGLEWVARIRTKSNNYATYYADSVKDRFTISRDDSKNSLYLQMNSLKTEDTAVYYCVETGFAYWDQGTLVTVSS
VL: DIQMTQSPSSLSASVGDRVTITCSASSSVSYMHWFQQKPGKSPKLLIYSTSNLASGVPSRFSGSGSGTDYTLTISSLQPEDFATYYCQQRSSYPLTFGQGTKLEIKR
notes: humanized from mab147, Hu147-VH2/VL4; IgG1/kappa
B3: Hu147-12wk (antibody, human IgG1, kappa, V domains shown)
VH: EVQLVESGGGLVQPGGSLRLSCAASGFTFSTYAMNWVRQAPGKGLEWVGRIRTKSNNYATYYADSVKDRFTISRDDSKNSLYLQMNSLKTEDTAVYYCVETGFAYWDQGTLVTVSS
VL: EIVLTQSPATLSLSPGERATLSCSASSSVSYMHWFQQKPGQSPKLLIYSTSNLASGIPARFSGSGSGTDYTLTISSLEPEDFAVYYCQQRSSYPLTFGQGTKLEIKR
notes: humanized from mab147, Hu147-VH1/VL2; IgG1/kappa
B4: Hu147-13wk (antibody, human IgG1, kappa, V domains shown)
VH: EVQLVESGGGLVQPGGSLRLSCAASGFTFSTYAMNWVRQAPGKGLEWVGRIRTKSNNYATYYADSVKDRFTISRDDSKNSLYLQMNSLKTEDTAVYYCVETGFAYWDQGTLVTVSS
VL: EIVLTQSPATLSLSPGERATLSCSASSSVSYMHWFQQKPGQSPKLWIYSTSNLASGVPARFSGSGSGTDYTLTISSLEPEDFAVYYCQQRSSYPLTFGQGTKLEIKR
notes: humanized from mab147, Hu147-VH1/VL3; IgG1/kappa
B5: Hu147-31wk (antibody, human IgG1, kappa, V domains shown)
VH: EVQLVESGGGLVQPGGSLRLSCAASGFSFNTYAMNWVRQAPGKGLEWVARIRTKSNNYATYYADSVKDRFTISRDDSESSLYLQMNSLKTEDTAVYYCVETGFAYWDQGTLVTVSS
VL: EIVLTQSPATLSLSPGERATLSCSASSSVSYMHWFQQKPGQSPRLLIYSTSNLASGIPARFSGSGSGTDYTLTISSLEPEDFAVYYCQQRSSYPLTFGQGTKLEIKR
notes: humanized from mab147, Hu147-VH3/VL1; IgG1/kappa
B6: Hu147-32wk (antibody, human IgG1, kappa, V domains shown)
VH: EVQLVESGGGLVQPGGSLRLSCAASGFSFNTYAMNWVRQAPGKGLEWVARIRTKSNNYATYYADSVKDRFTISRDDSESSLYLQMNSLKTEDTAVYYCVETGFAYWDQGTLVTVSS
VL: EIVLTQSPATLSLSPGERATLSCSASSSVSYMHWFQQKPGQSPKLLIYSTSNLASGIPARFSGSGSGTDYTLTISSLEPEDFAVYYCQQRSSYPLTFGQGTKLEIKR
notes: humanized from mab147, Hu147-VH3/VL2; IgG1/kappa
B7: Hu147-15wk (antibody, human IgG1, kappa, V domains shown)
VH: EVQLVESGGGLVQPGGSLRLSCAASGFTFSTYAMNWVRQAPGKGLEWVGRIRTKSNNYATYYADSVKDRFTISRDDSKNSLYLQMNSLKTEDTAVYYCVETGFAYWDQGTLVTVSS
VL: DIQLTQSPSSLSASVGDRVTITCSASSSVSYMHWFQQKPGKSPKLWIYSTSNLASGVPSRFSGSGSGTDYTLTISSLQPEDFATYYCQQRSSYPLTFGQGTKLEIKR
notes: humanized from mab147, Hu147-VH1/VL5; IgG1/kappa
B8: Hu147-21wk (antibody, human IgG1, kappa, V domains shown)
VH: EVQLVESGGGLVQPGGSLRLSCAASGFTFNTYAMNWVRQAPGKGLEWVARIRTKSNNYATYYADSVKDRFTISRDDSKNSLYLQMNSLKTEDTAVYYCVETGFAYWDQGTLVTVSS
VL: EIVLTQSPATLSLSPGERATLSCSASSSVSYMHWFQQKPGQSPRLLIYSTSNLASGIPARFSGSGSGTDYTLTISSLEPEDFAVYYCQQRSSYPLTFGQGTKLEIKR
notes: humanized from mab147, Hu147-VH2/VL1; IgG1/kappa
B9: Hu147-14wk (antibody, human IgG1, kappa, V domains shown)
VH: EVQLVESGGGLVQPGGSLRLSCAASGFTFSTYAMNWVRQAPGKGLEWVGRIRTKSNNYATYYADSVKDRFTISRDDSKNSLYLQMNSLKTEDTAVYYCVETGFAYWDQGTLVTVSS
VL: DIQMTQSPSSLSASVGDRVTITCSASSSVSYMHWFQQKPGKSPKLLIYSTSNLASGVPSRFSGSGSGTDYTLTISSLQPEDFATYYCQQRSSYPLTFGQGTKLEIKR
notes: humanized from mab147, Hu147-VH1/VL4; IgG1/kappa
B10: Hu147-33wk (antibody, human IgG1, kappa, V domains shown)
VH: EVQLVESGGGLVQPGGSLRLSCAASGFSFNTYAMNWVRQAPGKGLEWVARIRTKSNNYATYYADSVKDRFTISRDDSESSLYLQMNSLKTEDTAVYYCVETGFAYWDQGTLVTVSS
VL: EIVLTQSPATLSLSPGERATLSCSASSSVSYMHWFQQKPGQSPKLWIYSTSNLASGVPARFSGSGSGTDYTLTISSLEPEDFAVYYCQQRSSYPLTFGQGTKLEIKR
notes: humanized from mab147, Hu147-VH3/VL3; IgG1/kappa
B11: Hu147-11wk (antibody, human IgG1, kappa, V domains shown)
VH: EVQLVESGGGLVQPGGSLRLSCAASGFTFSTYAMNWVRQAPGKGLEWVGRIRTKSNNYATYYADSVKDRFTISRDDSKNSLYLQMNSLKTEDTAVYYCVETGFAYWDQGTLVTVSS
VL: EIVLTQSPATLSLSPGERATLSCSASSSVSYMHWFQQKPGQSPRLLIYSTSNLASGIPARFSGSGSGTDYTLTISSLEPEDFAVYYCQQRSSYPLTFGQGTKLEIKR
notes: humanized from mab147, Hu147-VH1/VL1
B12: Hu147-23wk (antibody, human IgG1, kappa, V domains shown)
VH: EVQLVESGGGLVQPGGSLRLSCAASGFTFNTYAMNWVRQAPGKGLEWVARIRTKSNNYATYYADSVKDRFTISRDDSKNSLYLQMNSLKTEDTAVYYCVETGFAYWDQGTLVTVSS
VL: EIVLTQSPATLSLSPGERATLSCSASSSVSYMHWFQQKPGQSPKLWIYSTSNLASGVPARFSGSGSGTDYTLTISSLEPEDFAVYYCQQRSSYPLTFGQGTKLEIKR
notes: humanized from mab147, Hu147-VH2/VL3; IgG1/kappa
B13: Hu147-34wk (antibody, human IgG1, kappa, V domains shown)
VH: EVQLVESGGGLVQPGGSLRLSCAASGFSFNTYAMNWVRQAPGKGLEWVARIRTKSNNYATYYADSVKDRFTISRDDSESSLYLQMNSLKTEDTAVYYCVETGFAYWDQGTLVTVSS
VL: DIQMTQSPSSLSASVGDRVTITCSASSSVSYMHWFQQKPGKSPKLLIYSTSNLASGVPSRFSGSGSGTDYTLTISSLQPEDFATYYCQQRSSYPLTFGQGTKLEIKR
notes: humanized from mab147, Hu147-VH3/VL4; IgG1/kappa
B14: CTGF antibody mAb1 (antibody, V domains shown)
VH: EGQLVQSGGGLVHPGGSLRLSCAGSGFTFSSYGMHWVRQAPGKGLEWVSGIGTGGGTYSTDSVKGRFTISRDNAKNSLYLQMNSLRAEDMAVYYCARGDYYGSGSFFDCWGQGTLVTVSS
VL: DIQMTQSPSSLSASVGDRVTITCRASQGISSWLAWYQQKPEKAPKSLIYAASSLQSGVPSRFSGSGSGTDFTLTISSLQPEDFATYYCQQYNSYPPTFGQGTKLEIKR
notes: positive control, from CN1829740B; also called pamrevlumab; FG-3019
B15: Hu164-67wl (antibody, human IgG1, lambda)
heavy: not shown
light: ETVVTQEPSLTVSPGGTVTLTCRSSIGAVTTSNYANWVQQKPGQAFRGLIGGTSNRAPWTPARFSGSLLGGKAALTLSGVQPEDEAEYYCALWYSTHYVFGGGTKLTVLGQPKANPTVTLFPPSSEELQANKATLVCLISDFYPGAVTVAWKADGSPVKAGVETTKPSKQSNNKYAASSYLSLTPEQWKSHRSYSCQVTHEGSTVEKTVAPTEC
notes: humanized from mab164, Hu164-VH6/VL7; IgG1/lambda
B16: Hu164-67yl (antibody, human IgG1, lambda)
heavy: EVTLKESGPVLVKPTETLTLTCTVSGFSLSTFGVHWIRQPPGKGLEWLGVIWRRGGTDYNAAFMSRLTISKDTSKSQVVFTMTNMDPVDTATYYCARDGGFDYWGQGTTVTVSSASTKGPSVFPLAPSSKSTSGGTAALGCLVKDYFPEPVTVSWNSGALTSGVHTFPAVLQSSGLYSLSSVVTVPSSSLGTQTYICNVNHKPSNTKVDKKVEPKSCDKTHTCPPCPAPELLGGPSVFLFPPKPKDTLYITREPEVTCVVVDVSHEDPEVKFNWYVDGVEVHNAKTKPREEQYNSTYRVVSVLTVLHQDWLNGKEYKCKVSNKALPAPIEKTISKAKGQPREPQVYTLPPSRDELTKNQVSLTCLVKGFYPSDIAVEWESNGQPENNYKTTPPVLDSDGSFFLYSKLTVDKSRWQQGNVFSCSVMHEALHNHYTQKSLSLSPGK
light: ETVVTQEPSLTVSPGGTVTLTCRSSIGAVTTSNYANWVQQKPGQAFRGLIGGTSNRAPWTPARFSGSLLGGKAALTLSGVQPEDEAEYYCALWYSTHYVFGGGTKLTVLGQPKANPTVTLFPPSSEELQANKATLVCLISDFYPGAVTVAWKADGSPVKAGVETTKPSKQSNNKYAASSYLSLTPEQWKSHRSYSCQVTHEGSTVEKTVAPTEC
notes: humanized from mab164, Hu164-VH6/VL7

molecular target: T1, human CTGF (antigen of the Biacore …); assay: SPR (Biacore T200), human CTGF on CM5 chip, antibody 150 ug/ml then 50 nM TGF-β1 as competitor
Method: The antigen human CTGF was firstly fixed onto a CM5 biosensor chip (Cat. #BR-1005-30, GE) by amino coupling at a level of 1500 RU. Then high-concentration CTGF antibody (150 μg/ml) was allowed to flow over the surface of the chip for 150 s, and 50 nM TGF-β1 protein was injected for 120 s. The reaction signals were detected in real time using a Biacore T200 instrument to obtain an association and dissociation curve. After dissociation was complete in each test cycle, the biosensor chip was washed thoroughly and regenerated with a regeneration buffer.
The data obtained from the experiment were statistically analyzed using GE Biacore T200 Evaluation version 3.0 software.
Blocking efficiency=[1−(sample response value/blank control response value)]×100%.

**Q.** How did the “Percent function blocking (%)” value turn out when B1 was run?
**A.** 52.3%

**Q.** Which “Percent function blocking (%)” value does the source give for B2 here?
**A.** 52.8%

**Q.** With B3 as the binder, how does the “Percent function blocking (%)” value read?
**A.** 51.6%

**Q.** For B4, which “Percent function blocking (%)” value is on record?
**A.** 53.3%

**Q.** With B5 as the binder, how does the “Percent function blocking (%)” value read?
**A.** 55%

**Q.** How did the “Percent function blocking (%)” value turn out when B6 was run?
**A.** 55.2%

**Q.** B7 was tested. Which “Percent function blocking (%)” value did it give?
**A.** 52.3%

**Q.** For B8, which “Percent function blocking (%)” value is on record?
**A.** 51.6%

**Q.** B9 was tested. Which “Percent function blocking (%)” value did it give?
**A.** 50.9%

**Q.** How did the “Percent function blocking (%)” value turn out when B10 was run?
**A.** 57.3%

**Q.** B11 was tested. Which “Percent function blocking (%)” value did it give?
**A.** 50.8%

**Q.** For B12, which “Percent function blocking (%)” value is on record?
**A.** 54.6%

**Q.** B13 was tested. Which “Percent function blocking (%)” value did it give?
**A.** 56.2%

**Q.** With B14 as the binder, how does the “Percent function blocking (%)” value read?
**A.** 41.3%

**Q.** For B15, which “Percent function blocking (%)” value is on record?
**A.** 55.5%

**Q.** For B16, which “Percent function blocking (%)” value is on record?
**A.** 53.9%
